Measured values from US20220096653A1, “CONJUGATE COMPRISING LIGAND AND CEACAM5 ANTIBODY FAB FRAGMENT” (ASTELLAS PHARMA INC., priority 2019, published 2022).

T1: CEACAM5 (R&D Systems, 4128-CM-050) (human, UniProt P06731 35-685)
T1 construct: Immobilised on the ELISA plate; also called human CEACAM5
T1 sequence (looked up): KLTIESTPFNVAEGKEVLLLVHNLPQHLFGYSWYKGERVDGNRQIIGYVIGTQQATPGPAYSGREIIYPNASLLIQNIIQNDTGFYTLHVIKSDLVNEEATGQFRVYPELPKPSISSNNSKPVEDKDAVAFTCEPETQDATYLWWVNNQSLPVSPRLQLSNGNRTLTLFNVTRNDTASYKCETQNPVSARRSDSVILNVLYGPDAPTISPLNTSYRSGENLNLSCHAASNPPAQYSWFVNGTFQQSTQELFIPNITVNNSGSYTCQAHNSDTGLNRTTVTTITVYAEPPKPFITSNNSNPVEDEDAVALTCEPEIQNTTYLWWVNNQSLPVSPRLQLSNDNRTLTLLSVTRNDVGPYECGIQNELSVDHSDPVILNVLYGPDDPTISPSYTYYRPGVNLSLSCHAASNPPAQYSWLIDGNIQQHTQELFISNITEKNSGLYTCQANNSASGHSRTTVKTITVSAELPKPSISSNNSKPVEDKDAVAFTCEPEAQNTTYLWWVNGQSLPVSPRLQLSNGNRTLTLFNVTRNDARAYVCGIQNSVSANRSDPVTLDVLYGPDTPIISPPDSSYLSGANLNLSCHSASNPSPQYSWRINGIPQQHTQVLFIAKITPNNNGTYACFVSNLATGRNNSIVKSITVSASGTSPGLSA


The binders below were run against T1, CEACAM5 (R&D Systems, 4128-CM-050) (assay: ELISA on immobilised CEACAM5, 4-parameter fit, duplicate).
How it was run: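 CEACAM5 immobilised at 0.1 μg/mL in 10 mM phosphate pH 7.2 overnight at 4° C, blocked with 5% BSA; Fab conjugates from about 10000 ng/mL in 14 threefold steps, 60 min at RT. HRP anti-human IgG (H+L) then ECL chemiluminescence; EC₅₀ by 4-parameter logistic fit, duplicates.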

| EC50 | Binder |
| --- | --- |
| 0.3 nM | (Y-S1-X)p-Fab^2 with Y Gd/4arm-DOTA, S1 spacer (o), X -Met-Gly-Lys*-Z2(#N)- (Fab, V domains shown, labeling may sit on this chain; sites not stated; labeling portion (MW 1304) on amino groups of the Fab, sites and chain not stated; 1-2 per Fab by MS, also called Ex-No 59; conjugate 59) VH: EVQLVESGGGLVQPGGSLRLSCAASGFNIRDTYMHWVRQAPGKGLEWVARIDPANGNSRYVPKFQGRFTISADTSRNTAYLQMNSLRAEDTAVYYCAPFGYYVSDYAMAYWGQGTLVTVSS VL: DIQLTQSPSSLSASVGDRVTITCRAGESVDIFGVGFLHWYQQKPGKAPKLLIYRASNLESGIPSRFSGSGSRTDFTLTISSLQPEDFATYYCQQTNEDPYTFGQGTKVEIKR |
| 0.2 nM | (Y-S1-X)p-Fab^2 with Y DFO, S1 -C(═O)-(1,3-Ph)-C(═O)-, X -Gly-Lys*Z2(#S)- (Fab, V domains shown, labeling may sit on this chain; sites not stated; labeling portion (MW 1076) on amino groups of the Fab, sites and chain not stated; 1-3 per Fab by MS, No metal; also called Ex-No 64; conjugate 64) VH: EVQLVESGGGLVQPGGSLRLSCAASGFNIRDTYMHWVRQAPGKGLEWVARIDPANGNSRYVPKFQGRFTISADTSRNTAYLQMNSLRAEDTAVYYCAPFGYYVSDYAMAYWGQGTLVTVSS VL: DIQLTQSPSSLSASVGDRVTITCRAGESVDIFGVGFLHWYQQKPGKAPKLLIYRASNLESGIPSRFSGSGSRTDFTLTISSLQPEDFATYYCQQTNEDPYTFGQGTKVEIKR |
| 0.18 nM | [DFO-C(═O)-(CH2CH2O)4-(1,3-Ph)-C(═O)-Gly-Lys*-Z2(#S)]p-Fab^2 (Fab, V domains shown, labeling may sit on this chain; sites not stated; labeling portion (MW 1252) bound via 2-iminothiolane-treated amino groups of the Fab, sites and chain not stated; 1-2 per Fab by MS, No metal; also called Ex-No 61; Conjugate No. 61) VH: EVQLVESGGGLVQPGGSLRLSCAASGFNIRDTYMHWVRQAPGKGLEWVARIDPANGNSRYVPKFQGRFTISADTSRNTAYLQMNSLRAEDTAVYYCAPFGYYVSDYAMAYWGQGTLVTVSS VL: DIQLTQSPSSLSASVGDRVTITCRAGESVDIFGVGFLHWYQQKPGKAPKLLIYRASNLESGIPSRFSGSGSRTDFTLTISSLQPEDFATYYCQQTNEDPYTFGQGTKVEIKR |
| 0.14 nM | (Y-S1-X)p-Fab^2 with Y Gd/DOTA, S1 - (bond), X -Gly-Lys*-Z2(#S)- (Fab, V domains shown, labeling may sit on this chain; sites not stated; labeling portion (MW 926) on amino groups of the Fab, sites and chain not stated; 1-2 per Fab by MS, also called Ex-No 5; conjugate 5) VH: EVQLVESGGGLVQPGGSLRLSCAASGFNIRDTYMHWVRQAPGKGLEWVARIDPANGNSRYVPKFQGRFTISADTSRNTAYLQMNSLRAEDTAVYYCAPFGYYVSDYAMAYWGQGTLVTVSS VL: DIQLTQSPSSLSASVGDRVTITCRAGESVDIFGVGFLHWYQQKPGKAPKLLIYRASNLESGIPSRFSGSGSRTDFTLTISSLQPEDFATYYCQQTNEDPYTFGQGTKVEIKR |
| 0.15 nM | (Y-S1-X)p-Fab^2 with Y Gd/DOTA, S1 - (bond), X -Gly-Tyr*-CH2-C-(═O)-Lys*-Z2(#N)- (Fab, V domains shown, labeling may sit on this chain; sites not stated; labeling portion (MW 1046) on amino groups of the Fab, sites and chain not stated; 1-3 per Fab by MS, also called Ex-No 4; conjugate 4) VH: EVQLVESGGGLVQPGGSLRLSCAASGFNIRDTYMHWVRQAPGKGLEWVARIDPANGNSRYVPKFQGRFTISADTSRNTAYLQMNSLRAEDTAVYYCAPFGYYVSDYAMAYWGQGTLVTVSS VL: DIQLTQSPSSLSASVGDRVTITCRAGESVDIFGVGFLHWYQQKPGKAPKLLIYRASNLESGIPSRFSGSGSRTDFTLTISSLQPEDFATYYCQQTNEDPYTFGQGTKVEIKR |
| 0.13 nM | (Y-S1-X)p-Fab^2 with Y Gd/DOT[A], S1 - (bond), X -Gly-Ile-NH-(CH2)2-Z1(#N)- (Fab, V domains shown, labeling may sit on this chain; sites not stated; labeling portion (MW 852) on amino groups of the Fab, sites and chain not stated; 1-3 per Fab by MS, also called Ex-No 3; conjugate 3) VH: EVQLVESGGGLVQPGGSLRLSCAASGFNIRDTYMHWVRQAPGKGLEWVARIDPANGNSRYVPKFQGRFTISADTSRNTAYLQMNSLRAEDTAVYYCAPFGYYVSDYAMAYWGQGTLVTVSS VL: DIQLTQSPSSLSASVGDRVTITCRAGESVDIFGVGFLHWYQQKPGKAPKLLIYRASNLESGIPSRFSGSGSRTDFTLTISSLQPEDFATYYCQQTNEDPYTFGQGTKVEIKR |
| 0.14 nM | (Y-S1-X)p-Fab^2 with Y Gd/DOTA, S1 - (bond), X -Gly-Val-NH-(CH2)2-Z1(#N)- (Fab, V domains shown, labeling may sit on this chain; sites not stated; labeling portion (MW 838) on amino groups of the Fab, sites and chain not stated; 1-2 per Fab by MS, also called Ex-No 2; conjugate 2) VH: EVQLVESGGGLVQPGGSLRLSCAASGFNIRDTYMHWVRQAPGKGLEWVARIDPANGNSRYVPKFQGRFTISADTSRNTAYLQMNSLRAEDTAVYYCAPFGYYVSDYAMAYWGQGTLVTVSS VL: DIQLTQSPSSLSASVGDRVTITCRAGESVDIFGVGFLHWYQQKPGKAPKLLIYRASNLESGIPSRFSGSGSRTDFTLTISSLQPEDFATYYCQQTNEDPYTFGQGTKVEIKR |
| 0.18 nM | [DFO-C(═O)-CH2O-(1,3-Ph)-C(═O)-Gly-Tyr*-CH2-C(═O)-NH-(CH2)2-Z1(#S)]p-Fab^2 (Fab, V domains shown, labeling may sit on this chain; sites not stated; labeling portion (MW 1241) bound via 2-iminothiolane-treated amino groups of the Fab, sites and chain not stated; 1 per Fab by MS; free thiols capped with 2-iodoacetamide, No metal; also called Ex-No 60; Conjugate No. 60) VH: EVQLVESGGGLVQPGGSLRLSCAASGFNIRDTYMHWVRQAPGKGLEWVARIDPANGNSRYVPKFQGRFTISADTSRNTAYLQMNSLRAEDTAVYYCAPFGYYVSDYAMAYWGQGTLVTVSS VL: DIQLTQSPSSLSASVGDRVTITCRAGESVDIFGVGFLHWYQQKPGKAPKLLIYRASNLESGIPSRFSGSGSRTDFTLTISSLQPEDFATYYCQQTNEDPYTFGQGTKVEIKR |
